Data on three molecules can be found in paper PMC7764039.

This test addresses Gαi (endogenous in HEK-293 cells) (human (endogenous in HEK-293)) (UniProt P63096).
Chain of UniProt P63096 (P63096 whole entry): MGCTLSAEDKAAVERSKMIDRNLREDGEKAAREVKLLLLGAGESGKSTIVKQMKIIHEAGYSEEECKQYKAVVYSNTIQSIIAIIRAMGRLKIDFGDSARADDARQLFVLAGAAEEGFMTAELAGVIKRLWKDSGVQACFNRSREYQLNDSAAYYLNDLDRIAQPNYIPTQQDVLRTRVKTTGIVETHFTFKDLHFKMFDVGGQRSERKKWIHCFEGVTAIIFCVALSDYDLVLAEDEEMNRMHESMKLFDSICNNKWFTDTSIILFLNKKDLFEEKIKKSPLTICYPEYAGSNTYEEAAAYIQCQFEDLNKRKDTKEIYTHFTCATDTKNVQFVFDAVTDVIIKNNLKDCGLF

“A1/A2AΔ316R truncated chimera, untagged (plasmid ARJ196: pCEP4 A1/A2AΔ316R) (from UniProt P30542 1-290; P29274 291-316) (receptor)” registered a reduction in cAMP signaling in transiently transfected HEK-293 cells, 1 µM CPA with 10 μM forskolin, normalized to forskolin treated cells of 67%.
As to “A1/A2AR chimera, untagged (plasmid ARJ195: pCEP4 A1/A2AR) (from UniProt P30542 1-290; P29274 291-412) (receptor)”, the reduction in cAMP signaling in transiently transfected HEK-293 cells, 1 µM CPA with 10 μM forskolin, normalized to forskolin treated cells stood at 72%.

B1: A1R, untagged (plasmid ARJ194: pCEP4 A1R) (receptor)
chain: MPPSISAFQAAYIGIEVLIALVSVPGNVLVIWAVKVNQALRDATFCFIVSLAVADVAVGALVIPLAILINIGPQTYFHTCLMVACPVLILTQSSILALLAIAVDRYLRVKIPLRYKMVVTPRRAAVAIAGCWILSFVVGLTPMFGWNNLSAVERAWAANGSMGEPVIKCEFEKVISMEYMVYFNFFVWVLPPLLLMVLIYLEVFYLIRKQLNKKVSASSGDPQKYYGKELKIAKSLALILFLFALSWLPLHILNCITLFCPSCHKPSILTYIAIFLTHGNSAMNPIVYAFRIQKFRVTFLKIWNDHFRCQPAPPIDEDLPEERPDD
B1 had a reduction in cAMP signaling in transiently transfected HEK-293 cells, 1 µM CPA with 10 μM forskolin, normalized to forskolin treated cells of 62%.
